This note sets out measurements from patent publication US20250163145A1 (SHIONOGI, published 2025).

Sequences and labels used below:
T1: epitope peptide Cys-CE3C long (also: biotin label, site not given here)
T1 peptide: CSVNVDKQPKYEYSL

T2: Cys-hCE3C peptide (CQPKYEYSL), hCE3C peptide of human Nav1.7 with an added N-terminal Cys (human, also: biotin-labeled, site not given here)
T2 construct: Residues 1424-1431 of human Nav1.7 (UniProtKB Q15858) plus an N-terminal Cys; also called immunogenic peptide; immunogen peptide
T2 peptide: CQPKYEYSL

B1: h15H11 heavy chain CDR mutant A101V (antibody, human IgG4 S228P, kappa, name in Kabat numbering, V domains shown)
VH: QVQLVQSGSELKKPGASVKVSCKASGYTFTDYNMHWVRQAPGRSLEWMGRINPKNGVINSNEKFKDRFVFSLDTSVSTAYLQISSLKAEDTAVYYCAPSYYGGNTDVYWGQGTLVTVSS
VL: DIVLTQSPASLAVSPGQRATITCRASESVDNYGISFMNWFQQKPGQPPKLLIYAASSQGSGVPARFSGSGSGTDFTLTINPMEANDTANYYCQQSKEFPWTFGGGTKVEIKR
notes: hIgG4Pro/hIgK
B2: h15H11 light chain CDR mutant W96Y (antibody, human IgG4 S228P, kappa, name in Kabat numbering, V domains shown)
VH: B1 VH with V107A
VL: B1 VL with W100Y
notes: hIgG4Pro/hIgK
B3: h15H11 light chain CDR mutant Q90N (antibody, human IgG4 S228P, kappa, name in Kabat numbering, V domains shown)
VH: B1 VH with V107A
VL: B1 VL with Q94N
notes: hIgG4Pro/hIgK
B4: h15H11 heavy chain CDR mutant M34L (antibody, human IgG4 S228P, kappa, name in Kabat numbering, V domains shown)
VH: B1 VH with M34L, V107A
VL: B1 VL
notes: hIgG4Pro/hIgK
B5: h15H11 light chain CDR mutant P95G (antibody, human IgG4 S228P, kappa, name in Kabat numbering, V domains shown)
VH: B1 VH with V107A
VL: B1 VL with P99G
notes: hIgG4Pro/hIgK
B6: h15H11-50 (antibody, human IgG4 S228P, kappa, V domains shown)
VH: B1 VH with N59L, N104D, T105D, V107A
VL: B1 VL with E27D, M37L, N85I
notes: hIgG4Pro/hIgK
B7: h15H11-54 (antibody, human IgG4 S228P, kappa, V domains shown)
VH: B1 VH with N59L, N104D, T105D, V107A
VL: B1 VL with E27D, M37L, D86P
notes: hIgG4Pro/hIgK
B8: h15H11-51 (antibody, human IgG4 S228P, kappa, V domains shown)
VH: B1 VH with N59L, N104D, T105D, V107A
VL: B1 VL with E27D, M37L, N85D
notes: hIgG4Pro/hIgK
B9: h15H11-49 (antibody, human IgG4 S228P, kappa, V domains shown)
VH: B1 VH with N59L, N104D, T105D, V107A
VL: B1 VL with E27D, M37L, N85V
notes: hIgG4Pro/hIgK
B10: h15H11-48 (antibody, human IgG4 S228P, kappa, V domains shown)
VH: B1 VH with N59L, N104D, T105D, V107A
VL: B1 VL with E27D, M37L, N85L
notes: hIgG4Pro/hIgK
B11: h15H11-45 (antibody, human IgG4 S228P, kappa, V domains shown)
VH: B1 VH with N59L, N104D, T105D, V107A
VL: B1 VL with E27D, M37L, N85A
notes: hIgG4Pro/hIgK
B12: h15H11-52 (antibody, human IgG4 S228P, kappa, V domains shown)
VH: B1 VH with N59L, N104D, T105D, V107A
VL: B1 VL with E27D, M37L, N85R
notes: hIgG4Pro/hIgK
B13: h15H11-53 (antibody, human IgG4 S228P, kappa, V domains shown)
VH: B1 VH with N59L, N104D, T105D, V107A
VL: B1 VL with E27D, M37L, N85G
notes: hIgG4Pro/hIgK
B14: h15H11-47 (antibody, human IgG4 S228P, kappa, V domains shown)
VH: B1 VH with N59L, N104D, T105D, V107A
VL: B1 VL with E27D, M37L, N85F
notes: hIgG4Pro/hIgK
B15: h15H11-44 (antibody, human IgG4 S228P, kappa, V domains shown)
VH: B1 VH with N59L, N104D, T105D, V107A
VL: B1 VL with E27D, M37L, N85E
notes: hIgG4Pro/hIgK
B16: h15H11-46 (antibody, human IgG4 S228P, kappa, V domains shown)
VH: B1 VH with N59L, N104D, T105D, V107A
VL: B1 VL with E27D, M37L, N85Q
notes: hIgG4Pro/hIgK
B17: h15H11-59 (antibody, human IgG4 S228P, kappa, V domains shown)
VH: B1 VH with N59L, N104D, T105D, V107A
VL: DIVMTQSPDSLAVSLGERATINCRASDSVDNYGISFLNWFQQKPGQPPKLLIYAASSQGSGVPDRFSGSGSGTDFTLTINPMQAEDVAVYYCQQSKEFPWTFGGGTKVEIKR
notes: hIgG4Pro/hIgK
B18: h15H11-58 (antibody, human IgG4 S228P, kappa, V domains shown)
VH: B1 VH with N59L, N104D, T105D, V107A
VL: B17 VL with N80S, P81S, V89M
notes: hIgG4Pro/hIgK
B19: h15H11-60 (antibody, human IgG4 S228P, kappa, V domains shown)
VH: B1 VH with N59L, N104D, T105D, V107A
VL: B17 VL with N80S, P81S
notes: hIgG4Pro/hIgK
B20: h15H11-65 (antibody, human IgG4 S228P, kappa, V domains shown)
VH: B1 VH with N59L, N104D, T105D, V107A
VL: B17 VL with D64A, N80S, P81S, V89M
notes: hIgG4Pro/hIgK
B21: h15H11-62 (antibody, human IgG4 S228P, kappa, V domains shown)
VH: B1 VH with N59L, N104D, T105D, V107A
VL: B17 VL with N80S, P81S, Q83E
notes: hIgG4Pro/hIgK
B22: h15H11-63 (antibody, human IgG4 S228P, kappa, V domains shown)
VH: B1 VH with N59L, N104D, T105D, V107A
VL: B17 VL with N80S, P81S, V87T
notes: hIgG4Pro/hIgK
B23: h15H11-64 (antibody, human IgG4 S228P, kappa)
heavy: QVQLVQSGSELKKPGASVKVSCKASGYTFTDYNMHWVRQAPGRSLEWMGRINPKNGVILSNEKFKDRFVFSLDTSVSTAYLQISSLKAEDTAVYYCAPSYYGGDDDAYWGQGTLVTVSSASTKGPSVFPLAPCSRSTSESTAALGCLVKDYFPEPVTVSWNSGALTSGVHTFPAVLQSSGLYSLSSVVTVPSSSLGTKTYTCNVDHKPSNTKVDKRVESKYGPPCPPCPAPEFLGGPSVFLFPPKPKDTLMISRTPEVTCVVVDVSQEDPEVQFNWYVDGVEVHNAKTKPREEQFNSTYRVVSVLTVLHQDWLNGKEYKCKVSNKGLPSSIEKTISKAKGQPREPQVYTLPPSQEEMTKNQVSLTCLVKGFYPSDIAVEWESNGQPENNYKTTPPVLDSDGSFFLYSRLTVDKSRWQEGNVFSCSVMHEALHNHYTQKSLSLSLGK
light: DIVMTQSPDSLAVSLGERATINCRASDSVDNYGISFLNWFQQKPGQPPKLLIYAASSQGSGVPARFSGSGSGTDFTLTISSMQAEDVAVYYCQQSKEFPWTFGGGTKVEIKRTVAAPSVFIFPPSDEQLKSGTASVVCLLNNFYPREAKVQWKVDNALQSGNSQESVTEQDSKDSTYSLSSTLTLSKADYEKHKVYACEVTHQGLSSPVTKSFNRGEC
notes: hIgG4Pro/hIgK
B24: h15H11-66 (antibody, human IgG4 S228P, kappa)
heavy: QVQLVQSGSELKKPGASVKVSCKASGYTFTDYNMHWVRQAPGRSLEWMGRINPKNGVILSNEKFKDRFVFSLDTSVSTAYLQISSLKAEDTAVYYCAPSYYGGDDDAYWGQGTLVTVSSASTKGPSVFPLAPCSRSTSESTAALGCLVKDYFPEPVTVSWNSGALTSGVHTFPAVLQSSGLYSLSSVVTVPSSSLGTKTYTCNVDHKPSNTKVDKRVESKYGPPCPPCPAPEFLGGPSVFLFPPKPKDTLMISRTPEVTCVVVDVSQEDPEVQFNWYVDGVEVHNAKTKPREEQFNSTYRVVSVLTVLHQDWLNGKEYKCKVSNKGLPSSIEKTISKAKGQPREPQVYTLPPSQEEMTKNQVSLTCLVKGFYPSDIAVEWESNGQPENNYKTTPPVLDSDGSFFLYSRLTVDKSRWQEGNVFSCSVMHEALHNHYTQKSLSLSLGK
light: B23 light with M4L, D9A
notes: hIgG4Pro/hIgK
B25: h15H11-67 (antibody, human IgG4 S228P, kappa)
heavy: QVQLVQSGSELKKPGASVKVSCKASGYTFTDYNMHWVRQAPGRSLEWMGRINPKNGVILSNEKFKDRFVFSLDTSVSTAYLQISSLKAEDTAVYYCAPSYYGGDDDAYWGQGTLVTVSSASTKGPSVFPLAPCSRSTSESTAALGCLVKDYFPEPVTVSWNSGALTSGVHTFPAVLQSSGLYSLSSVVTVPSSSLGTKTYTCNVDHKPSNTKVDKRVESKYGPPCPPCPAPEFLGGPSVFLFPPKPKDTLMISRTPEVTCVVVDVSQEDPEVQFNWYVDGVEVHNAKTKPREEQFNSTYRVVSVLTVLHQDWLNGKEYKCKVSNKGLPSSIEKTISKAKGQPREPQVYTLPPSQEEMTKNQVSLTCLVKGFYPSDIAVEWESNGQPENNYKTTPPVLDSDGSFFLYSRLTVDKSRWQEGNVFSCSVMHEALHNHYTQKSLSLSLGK
light: B23 light with M4L, D9A, E17Q
notes: hIgG4Pro/hIgK
B26: mouse monoclonal antibody 15H11 (antibody, V domains shown)
VH: EVQLQQSGPELLKPGASVKISCKASGYTFTDYNMHWVKQSHGRSLEWIGRINPKNGVINSNEKFKDKATLTVDKSLSTAYMDLRSLTSEDSAVYFCAPSYYGGNTDAYWGHGTLVTVSA
VL: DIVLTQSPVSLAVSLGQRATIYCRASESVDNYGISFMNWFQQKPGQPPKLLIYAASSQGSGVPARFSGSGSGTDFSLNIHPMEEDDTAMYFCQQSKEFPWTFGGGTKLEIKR
notes: Mouse hybridoma antibody; also called mouse 15H11

Positions count from the first letter of the chain named. Where no end group is shown, it is not given here.

In one assay the target is T1, epitope peptide Cys-CE3C long. The experiment in a line: competitive ELISA (Example 5). Here is the method: (§1) A diluted solution of the obtained recombinant humanized antibody, a biotin-labeled immunogen peptide, and Streptavidin-HRP (manufactured by PIERCE) were added to an anti-human IgG antibody-immobilized plate, and reacted overnight at 4° C. […] Next, a recombinant human antibody at the dilution rate, a biotin-labeled immunogen peptide, and Streptavidin-HRP (manufactured by PIERCE) were added. At the same time, a dilution series of unlabeled immunogenic peptide was added and reacted overnight at 4° C. After washing twice with ELISA wash buffer, TMB-Substrate Chromogen (manufactured by Thermo Fisher Scientific) was added to develop color, the reaction was stopped with an equal amount of 0.5N sulfuric acid, and the absorbance at 450 nm was measured. The concentration of the unlabeled peptide which attenuated the signal of the biotin-labeled peptide by half was defined as the affinity (IC50).
A general note: ELISA stands for enzyme-linked immunosorbent assay.
In the case of B1, the binding result is listed as “no binding (tested: below the detection limit)”.

Take B2: the binding result is recorded as “no binding (tested: below the detection limit)”.

Take B3: the binding result is reported as “no binding (tested: below the detection limit)”.

For B4, the binding result is given as “no binding (tested: below the detection limit)”.

Turning to B5, the binding result is given as “no binding (tested: below the detection limit)”.

For another assay the target is unchanged. Briefly: competitive ELISA, unlabeled vs biotin-labeled peptide, antibody on anti-human IgG plate. Here is the method:
as §1
Mutants (h15H11-44 to 54) in which various mutations were introduced into the light chain human framework sequence of h15H11-2 (heavy chain variable region: IGHV7-4-1 Q43R, G44S, N58L, N100D, T100aD, R94P (SEQ ID NO: 33)/light chain variable region: IGKV7-3 E27D, M33L, Y36F, V78M (SEQ ID NO: 55)) produced in Example 7 were produced. Affinity evaluation was performed on the produced mutants by the method described in Example 5.
On to B6, for which the IC50 worked out at 0.55 nM.

For B7, the IC50 is 0.72 nM.

With B8, the IC50 was 0.63 nM.

B9 yielded an IC50 of 0.62 nM.

As to B10, the IC50 was determined as 0.51 nM.

Turning to B11, the IC50 amounted to 0.5 nM.

Take B12: the IC50 worked out at 0.5 nM.

The molecule B13 came in with an IC50 of 0.55 nM.

Turning to B14, the IC50 amounted to 0.53 nM.

B15 registered an IC50 of 0.51 nM.

In turn, B16 showed an IC50 of 0.5 nM.

The target is the same in a further assay. The assay is described as above. This is another data set of the same source. Here is the method: as §1
A mutant having the heavy chain variable region represented by IGHV7-4-1 Q43R, G44S, N58L, N100D, T100aD, R94P (SEQ ID NO: 33) and the light chain variable region represented by IGKV4-1 (SEQ ID NO: 18) produced in Example 3 was produced. New mutants (h15H11-55 to 67) were produced in which various mutations were introduced into the light chain human framework sequence of the produced mutants, and affinity evaluation was performed on the produced mutants by the method described in Example 5.
In turn, B17 returned an IC50 of 0.8 nM.

In turn, B18 returned an IC50 of 0.78 nM.

Regarding B19, the IC50 was determined as 0.79 nM.

Molecule B20 had an IC50 of 0.75 nM.

B21 registered an IC50 of 0.73 nM.

Turning to B22, the IC50 was found to be 0.64 nM.

Regarding B23, the IC50 was found to be 0.68 nM.

For B24, the IC50 is 0.53 nM.

B25 came in with an IC50 of 0.46 nM.

A further assay has as its target T2, Cys-hCE3C peptide (CQPKYEYSL), hCE3C …. Briefly: ELISA, hybridoma supernatant on anti-mouse IgG plate, biotin-labeled Cys-hCE3C + streptavidin-HRP. Here is the method:
Three days after the final immunization, the spleen was removed, splenocytes and mouse myeloma cells (p3x6363-Ag8, Tokyo Oncology Institute) were fused by the PEG-method, and selection was made in a medium containing hypoxanthine, aminopterin and thymidine. Human Nav1.7-binding antibodies were identified by performing ELISA against immunogenic peptides using hybridoma culture supernatants. Specifically, hybridoma culture supernatant was added to an anti-mouse IgG antibody immobilized plate, washed twice with ELISA wash buffer, and biotin-labeled immunogenic peptide (Cys-hCE3C) and Streptavidin-HRP (manufactured by PIERCE) was added and reacted overnight at 4° C. After washing twice with ELISA wash buffer and developing color by adding TMB-Substrate Chromogen (manufactured by Thermo Fisher Scientific), the reaction was stopped with an equal volume of 0.5N sulfuric acid, and the absorbance at 450 nm was measured.
With B26, the binding result is on record as “binds”.

By IC50 is commonly meant the concentration that gives 50% inhibition. Lower therefore signals higher potency.
